Among the data in the supplement of paper PMC10567573 are protein stability index values, retold here.

B1: TFE3 (parent)
chain: FPSDHLGDLGDPFHLGLEDILMEE
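Further: lentivirally expressed fusions sorted by FACS into six bins by GFP to DsRed ratio, PSI derived from sequencing read proportions per bin multiplied by bin number.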

This data set covers variants of B1. In words: protein stability index of a GFP-peptide fusion (GPS, HEK-293T) (PSI 1-6); higher = more stable. The following applies: c terminus: a fixed tail appended.
Take FPSDHLGDLGDSFHLGLEDILMEE: the protein stability index amounted to 4.84.

Turning to FPSDHLGDLGDAFHLGLEDILMEE, the protein stability index worked out at 3.11.

As for FPSDHLGDLGDMFHLGLEDILMEE, the protein stability index was determined as 3.46.

As for FPSDHLGDLGDCFHLGLEDILMEE, the protein stability index worked out at 3.62.

In the case of FPSDHLGDLGDGFHLGLEDILMEE, the protein stability index amounted to 4.1.

Turning to FPSDHLGDLGDHFHLGLEDILMEE, the protein stability index stood at 3.98.

Turning to FPSDHLGDLGDLFHLGLEDILMEE, the protein stability index was determined as 2.81.

As for FPSDHLGDLGDRFHLGLEDILMEE, the protein stability index is 4.1.

Consider FPSDHLGDLGDKFHLGLEDILMEE, for which the protein stability index came out at 4.02.

Take FPSDHLGDLGDIFHLGLEDILMEE: the protein stability index turned out to be 3.23.

FPSDHLGDGGDPFHLGLEDILMEE: the protein stability index stood at 3.54.

For the variant FPSDHLGDRGDPFHLGLEDILMEE, the protein stability index stood at 3.66.

As for FPSDHLGDWGDPFHLGLEDILMEE, the protein stability index amounted to 2.19.

Take FPSDHLGDNGDPFHLGLEDILMEE: the protein stability index amounted to 4.32.

As to FPSDHLGDCGDPFHLGLEDILMEE, the protein stability index was 3.5.

Regarding FPSDHLGDEGDPFHLGLEDILMEE, the protein stability index was 4.

For FPSDHLGDHGDPFHLGLEDILMEE, the protein stability index came out at 3.66.

Consider FPSDHLGDFGDPFHLGLEDILMEE, for which the protein stability index stood at 3.45.

For the variant FPSDHLGDDGDPFHLGLEDILMEE, the protein stability index turned out to be 4.5.

In the case of FPSDHLGDIGDPFHLGLEDILMEE, the protein stability index was determined as 3.54.

With FPSDHLGDTGDPFHLGLEDILMEE, the protein stability index turned out to be 3.79.

FPSDHLGDQGDPFHLGLEDILMEE: the protein stability index amounted to 3.64.

For the variant FPSDHLGDYGDPFHLGLEDILMEE, the protein stability index came to 3.29.

For the variant FPSDHLGDVGDPFHLGLEDILMEE, the protein stability index was found to be 3.48.

As to FPSDHLGDPGDPFHLGLEDILMEE, the protein stability index was 3.42.

For FPSDHLGDSGDPFHLGLEDILMEE, the protein stability index is 3.69.

As to FPSDHLGDKGDPFHLGLEDILMEE, the protein stability index was determined as 3.94.

Turning to FPSDHLGDMGDPFHLGLEDILMEE, the protein stability index was determined as 3.74.

Consider FPSDHLGDAGDPFHLGLEDILMEE, for which the protein stability index was determined as 3.63.

Turning to FPSDHLGDLFDPFHLGLEDILMEE, the protein stability index was 2.54.

On to FPSDHLGDLPDPFHLGLEDILMEE, for which the protein stability index stood at 3.47.

Take FPSDHLGDLMDPFHLGLEDILMEE: the protein stability index came out at 3.33.

Take FPSDHLGDLNDPFHLGLEDILMEE: the protein stability index is 2.97.

FPSDHLGDLKDPFHLGLEDILMEE: the protein stability index was found to be 3.14.

Consider FPSDHLGDLWDPFHLGLEDILMEE, for which the protein stability index amounted to 2.76.

With FPSDHLGDLSDPFHLGLEDILMEE, the protein stability index was 3.15.

For the variant FPSDHLGDLVDPFHLGLEDILMEE, the protein stability index was 3.63.

Take FPSDHLGDLQDPFHLGLEDILMEE: the protein stability index amounted to 3.05.

For the variant FPSDHLGDLDDPFHLGLEDILMEE, the protein stability index stood at 3.37.

In the case of FPSDHLGDLCDPFHLGLEDILMEE, the protein stability index turned out to be 2.93.

FPSDHLGDLEDPFHLGLEDILMEE: the protein stability index was 3.67.

Turning to FPSDHLGDLHDPFHLGLEDILMEE, the protein stability index was 2.95.

As to FPSDHLGDLYDPFHLGLEDILMEE, the protein stability index was 2.21.

Regarding FPSDHLGDLLDPFHLGLEDILMEE, the protein stability index is 3.05.

Consider FPSDHLGDLIDPFHLGLEDILMEE, for which the protein stability index was 3.04.

For the variant FPSDHLGDLADPFHLGLEDILMEE, the protein stability index was 3.41.

Consider FPSDHLGDLTDPFHLGLEDILMEE, for which the protein stability index amounted to 3.46.

As to FPSDHLGDLRDPFHLGLEDILMEE, the protein stability index is 3.3.

As to FPSDHLGDLGDPSHLGLEDILMEE, the protein stability index came to 4.87.

Regarding FPSDHLGDLGDPRHLGLEDILMEE, the protein stability index worked out at 4.74.

Turning to FPSDHLGDLGDPKHLGLEDILMEE, the protein stability index was 4.89.

Take FPSDHLGDLGDPVHLGLEDILMEE: the protein stability index is 4.89.

Consider FPSDHLGDLGDPAHLGLEDILMEE, for which the protein stability index is 4.62.

As for FPSDHLGDLGDPPHLGLEDILMEE, the protein stability index worked out at 4.91.

On to FPSDHLGDLGDPCHLGLEDILMEE, for which the protein stability index turned out to be 4.62.

For the variant FPSDHLGDLGDPIHLGLEDILMEE, the protein stability index was determined as 4.34.

In the case of FPSDHLGDLGDPHHLGLEDILMEE, the protein stability index worked out at 5.09.

FPSDHLGDLGDPLHLGLEDILMEE: the protein stability index stood at 4.25.

FPSDHLGDLGDPNHLGLEDILMEE: the protein stability index is 4.97.

Consider FPSDHLGDLGDPYHLGLEDILMEE, for which the protein stability index turned out to be 2.82.

As for FPSDHLGDLGDPMHLGLEDILMEE, the protein stability index was 4.7.

Turning to FPSDHLGDLGDPGHLGLEDILMEE, the protein stability index was determined as 4.97.

As to FPSDHLGDLGDPEHLGLEDILMEE, the protein stability index amounted to 5.21.

For FPSDHLGDLGDPDHLGLEDILMEE, the protein stability index was 5.22.

With FPSDHLGDLGDPQHLGLEDILMEE, the protein stability index worked out at 4.61.

On to FPSDHLGDLGDPTHLGLEDILMEE, for which the protein stability index was determined as 4.93.

In the case of FPSDHLGDLGDPWHLGLEDILMEE, the protein stability index came out at 1.76.

FPSDHLGSLGDPFHLGLEDILMEE: the protein stability index came to 3.19.

In the case of FPSDHLGCLGDPFHLGLEDILMEE, the protein stability index came to 2.88.

With FPSDHLGRLGDPFHLGLEDILMEE, the protein stability index worked out at 2.15.

As to FPSDHLGFLGDPFHLGLEDILMEE, the protein stability index was determined as 2.52.

Regarding FPSDHLGLLGDPFHLGLEDILMEE, the protein stability index turned out to be 2.33.

On to FPSDHLGGLGDPFHLGLEDILMEE, for which the protein stability index was found to be 3.09.

Regarding FPSDHLGMLGDPFHLGLEDILMEE, the protein stability index worked out at 2.96.

Turning to FPSDHLGHLGDPFHLGLEDILMEE, the protein stability index is 2.73.

Turning to FPSDHLGYLGDPFHLGLEDILMEE, the protein stability index was 2.14.

Turning to FPSDHLGPLGDPFHLGLEDILMEE, the protein stability index came to 3.31.

With FPSDHLGALGDPFHLGLEDILMEE, the protein stability index worked out at 2.96.

With FPSDHLGQLGDPFHLGLEDILMEE, the protein stability index came to 3.07.

As to FPSDHLGELGDPFHLGLEDILMEE, the protein stability index is 3.73.

In the case of FPSDHLGTLGDPFHLGLEDILMEE, the protein stability index turned out to be 2.36.

Take FPSDHLGVLGDPFHLGLEDILMEE: the protein stability index amounted to 3.1.

On to FPSDHLGKLGDPFHLGLEDILMEE, for which the protein stability index turned out to be 2.42.

Consider FPSDHLGNLGDPFHLGLEDILMEE, for which the protein stability index was 3.28.

For the variant FPSDHLGWLGDPFHLGLEDILMEE, the protein stability index stood at 1.98.

On to FPSDHLGILGDPFHLGLEDILMEE, for which the protein stability index came to 3.03.

FPSDHLGDLGDPFHDGLEDILMEE: the protein stability index is 4.45.

FPSDHLGDLGDPFHCGLEDILMEE: the protein stability index was 3.31.

For the variant FPSDHLGDLGDPFHIGLEDILMEE, the protein stability index worked out at 3.05.

As for FPSDHLGDLGDPFHHGLEDILMEE, the protein stability index was 3.93.

Take FPSDHLGDLGDPFHAGLEDILMEE: the protein stability index was 4.29.

As for FPSDHLGDLGDPFHFGLEDILMEE, the protein stability index was determined as 3.36.

As to FPSDHLGDLGDPFHEGLEDILMEE, the protein stability index is 4.21.

For FPSDHLGDLGDPFHGGLEDILMEE, the protein stability index was determined as 3.63.
